Measurements: US6194173A, “Binding proteins for phosphoinositides, GRP1 or general receptor 1 for phophoinositide” (priority 1999, dated 2001)
Entries after “also recorded” stand apart in the source; their conditions may differ.

Key:
GRP = molecular target: T1, GRP (Mus musculus, UniProt O08967); assay: Effect of phosphoinositides on GRP-catalyzed ARF1 guanine nucleotide exchange; assay type: biochemical; conditions: 25 μM lipid, 0.15 μM GRP
T1 construct: GST (N, cleaved yes); made in house; host or cells: GRP from pGEX-4T; ARF1 from baculovirus-infected Sf-9 cells
T1 sequence (O08967 1-399): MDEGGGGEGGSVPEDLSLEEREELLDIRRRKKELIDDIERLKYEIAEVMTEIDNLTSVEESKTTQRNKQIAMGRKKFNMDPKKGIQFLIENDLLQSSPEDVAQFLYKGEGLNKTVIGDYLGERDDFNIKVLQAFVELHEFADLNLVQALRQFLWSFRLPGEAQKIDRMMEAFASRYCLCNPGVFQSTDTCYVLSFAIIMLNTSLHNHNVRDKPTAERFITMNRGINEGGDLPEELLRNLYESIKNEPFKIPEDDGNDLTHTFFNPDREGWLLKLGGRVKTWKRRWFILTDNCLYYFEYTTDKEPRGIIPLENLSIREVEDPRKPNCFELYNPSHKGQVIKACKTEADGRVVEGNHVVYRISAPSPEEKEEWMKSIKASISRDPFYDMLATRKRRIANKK

ARNO = conditions: vesicles with high concentrations of negatively charged phospholipids; cited from earlier work
PH domain of PLCγ1 = conditions: cited from earlier work
PH domain of GRP = molecular target: T2, PH domain of GRP (Mus musculus, UniProt O08967); assay: Competition for [3H]dioctanoyl PtdIns(3,4,5)P3 binding to the PH domain of GRP; set-up: GST fused to the PH region of GRP (amino acids 239-399); made in house; host or cells: bacteria; conditions: FIG. 9B
T2 sequence (O08967 239-399): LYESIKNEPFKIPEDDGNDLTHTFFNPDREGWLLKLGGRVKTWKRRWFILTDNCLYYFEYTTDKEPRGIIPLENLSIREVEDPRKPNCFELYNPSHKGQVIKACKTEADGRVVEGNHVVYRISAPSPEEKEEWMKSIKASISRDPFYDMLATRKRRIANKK
Protocol: Binding assays were performed as described in (Rameh, L. E. et al., J. Biol. Chem., In Press). Briefly, GST fused to the PH region of GRP (amino acids 239-399) was bound to glutathione immobilized on agarose beads (Sigma). Synthetic [^3 H]-labeled diotanoyl PtdIns(3,4,5)P3 was added, and after one hour the beads were separated from the supernatant by centrifugation. The amount of [^3 H]-PtdIns(3,4,5)P3 bound to the PH domain was calculated by subtracting the amount of free [^3 H] present in supernatants from GST-GRP from the amount of free [^3 H] in supernatants from control GST. The data was fitted to the equation [bound]=Bmax×[free]/(KD + [free]) by least squares curve fit. For the competition assays the beads containing the GST-fusion proteins were incubated with 2.5 μM[^3 H]-labeled dioctanoyl PtdIns(3,4,5)P3 bound was calculated based on the amount of [^3 H] bound to the beads in the absence of competitor. The total [^3 H] bound to the GST control was less then 0.5% of the total [^3 H] bound to GRP PH domain. The data was fitted to the equation % bound=100-n×L/Klapp +L) where n is the % specific binding, L is the concentration of unlabeled lipid added and Klapp is the apparent competitive dissociation constant. The rations of the apparent dissociation constants accurately reflect the ratios of the true dissociation constants under the present experimental conditions (Rameh, L. E. et al., J. Biol. Chem., In Press).
The data depicted in FIG. 8 indicate that receptor signaling through PI3-kinases, which generates PtdIns(3,4,5)P3, may specifically regulate ARF proteins through GRP. In order to further test this, the relative binding affinities of PtdIns(3,4,5)P3 versus PtdIns (4,5)P2, which is constitutively present in cell membranes, for the PH domain of GRP were determined. A GST fusion protein of the PH domain of GRP was incubated with various concentrations of synthetic [^3 H]dioctanoyl PtdIns(3,4,5)P3 and binding was determined (FIG. 9A). These experiments show high affinity binding of this polyphosphoinositide,with a calculated Kd=0.5 μM.

ARF5 [1] = conditions: cited from earlier work
[2] = test system: integrin β2 cytoplasmic domain; conditions: through Sec7 homology region; cited from earlier work
[3] = Binding of [32P]PI(3,4,5)P3 by GST fusion proteins spotted on nitrocellulose; conditions: 150 pmol protein on nitrocellulose; relative to GST
Protocol: The 3'-phosphatidylinositol probes labeled at the 3' position were generated using GST-p110 PI3-kinase purified from recombinant bacculovirus infected Sf 9 cells, using either purified phosphatidylinositol phosphates or crude brain lipid. Briefly, 20 mg phospholipid in chloroform was dried under N2 and resuspended in […] of buffer containing Tris-HCl pH 7.4, EDTA 1 mM and incubated in […] phopsphorylation media containing 20 mM Tris-HCl pH 7.4, 100 mM NaCl, 10 mM MgCl2, 0.5 mM EGTA. 0.2 mM adenosine, GST-p110 and 5-10 mCi [g-^32 P]ATP (5 Ci/umol). The reaction was carried out for 2 h at room temperature, quenched by addition of 0.2 ml of 1M HCl, followed by 0.5 ml of chloroform:methanol (1:1). The organic phase containing phospholipids was washed 4 times with 0.4 ml of methanol:HCl (1: 1) and stored at -70° C. until use. Just before use, the lipid was dried under a stream of nitrogen with phosphatidyl serine corresponding to a final concentration of 20 mg/ml. The identities of the PI3-P, PI3,4-P2 and PI3,4,5-P3 were confirmed by TLC and HPLC analysis.
To generate the GST fusion proteins, PCR reactions using the primers: […] (SEQ ID NO:9) and […] (SEQ ID NO:10) for the GST-N construct, […] (SEQ ID NO:11) and […] (SEQ ID NO:12) for the GST-Sec7 construct, […] (SEQ ID NO:13) and […] (SEQ ID NO:14) for the GSTPH construct, and […] (SEQ ID NO:15) and […] (SEQ ID NO:16) for the GSTGRP constructs. The sequences of the PCR products were verified, and cloned into pGEX-5X-3 in the EcoRI and Xba 1 sites. The bacteria were lysed and the fusion proteins were bound to gluthathione agarose according to standard procedures. Elution was effected by incubation of the beads with one volume 20 mM Hepes, 100 mM NaCl, 1 mM dithiotreitol (H buffer) supplemented with 10 mM gluthatione and 1% sodium cholate, and the eluate was dialyzed extensively against H buffer. For binding assays, protein was bound to nitrocellulose using a BIO-RAD BIO-DOT™ apparatus, using 150 pmol per well for binding assays and 7.5 pmol for competition assays. The nitrocellulose was washed in assay buffer, and 3 mm circles of the filters containing the protein were cut out and incubated in […] assay buffer with the relevant lipids and competitors for 2 h under constant agitation. The filters were washed four times with 1 mL assay buffer and counted in a scintillation counter.
In order to determine whether PI(3,4,5)P3 binding could be localized to specific sequences within the GRP structure, GST fusion proteins containing either residues 239 to 399 (PH domain), residues 52 to 260 (Sec7 domain), or residues 5 to 71, full length GRP residues 5-399 were expressed in bacteria and purified on glutathione-conjugated beads. […] 150 pmol of the proteins were spotted on nitrocellulose filters, incubated with [^32 P]PI(3,4,5)P3 and the amount of bound lipid was determined as described. The values are the means of the quadruplicate determinations, and the error bars are the standard deviations. […] Nitrocellulose filters with GST-PH were incubated with 25,000 cpm of each of the phospholipids and the amount of bound lipid determined as described above. The values are the means of quadruplicate determinations and the error bars are the standard deviations. […] Although previous work has shown that PH domain from PLCδ (Lemmon et al. (1995) supra) and various other proteins bind 4,5-polyphosphoinositide, none have been reported to preferentially associate with a 3-polyphosphoinositide. […]

ARF1 = ARF1 guanine nucleotide exchange ([35S]GTPγS binding); assay type: biochemical
ARF5 [4] = assay: ARF5 guanine nucleotide exchange ([35S]GTPγS binding); assay type: biochemical
ARF6 = ARF6 guanine nucleotide exchange ([35S]GTPγS binding); assay type: biochemical
[5] = 40 minutes, phosphatidylcholine and cholate

Question: Which results are given for PtdIns(4,5)P2?
Answer: stimulation of ARF1 exchange activity in the presence of GRP (GRP; 0.05% cholate and 0.05% CHAPS (low negative charge)): little or no effect; stimulation of ARF1 exchange activity in the presence of GRP (GRP; 0.1% cholate (high negative charge)): stimulated; recruitment of ARNO and stimulation of guanine nucleotide exchange on ARF1 (ARNO): causing stimulation of guanine nucleotide exchange on ARF1; also recorded: sufficient for its recruitment to membranes as well as activation of ARF exchange; interaction with isolated PH domain of PLCγ1 (PH domain of PLCγ1): high affinity; affinity, fold lower than PtdIns(3,4,5)P3 (PH domain of GRP): 50 fold

B1: cytohesin-1: B2-1 encoded protein (denoted cytohesin 1) (protein)
chain: MEEDDSYVPSDLTAEERQELENIRRRKQELLADIQRLKDEIAEVANEIENLGSTEERKNMQRNKQVAMGRKKFNMDPKKGIQFLIENDLLKNTCEDIAQFLYKGEGLNKTAIGDYLGERDEFNIQVLHAFVELHEFTDLNLVQALRQFLWSFRLPGEAQKIDRMMEAFAQRYCQCNNGVFQSTDTCYVLSFAIIMLNTSLHNPNVKDKPTVERFIAMNRGINDGGDLPEELLRNLYESIKNEPFKIPEDDGNDLTHTFFNPDREGWLLKLGGGRVKTWKRRWFILTDNCLYYFEYTTDKEPRGIIPLENLSIREVEDSKKPNCFELYIPDNKDQVIKACKTEADGRWEGNHTVYRISAPTPEEKEEWIKCIKAAISRDPFYEMLAARKKKVSSTKRH
Question: With B1 as the molecule, how does the “ARF5 as substrate for cytohesin-1” value (ARF5 [1]) read?
Answer: not to be a substrate

Question: And the “binding of the integrin β2 cytoplasmic domain” value [2]?
Answer: high affinity

B2: GRP: general receptor for phosphoinositides, mouse protein with SEC7 and PH domains (protein)
chain: MDEGGGGEGGSVPEDLSLEEREELLDIRRRKKELIDDIERLKYEIAEVMTEIDNLTSVEESKTTQRNKQIAMGRKKFNMDPKKGIQFLIENDLLQSSPEDVAQFLYKGEGLNKTVIGDYLGERDDFNIKVLQAFVELHEFADLNLVQALRQFLWSFRLPGEAQKIDRMMEAFASRYCLCNPGVFQSTDTCYVLSFAIIMLNTSLHNHNVRDKPTAERFITMNRGINEGGDLPEELLRNLYESIKNEPFKIPEDDGNDLTHTFFNPDREGWLLKLGGRVKTWKRRWFILTDNCLYYFEYTTDKEPRGIIPLENLSIREVEDPRKPNCFELYNPSHKGQVIKACKTEADGRVVEGNHVVYRISAPSPEEKEEWMKSIKASISRDPFYDMLATRKRRIANKK
Question: For B2, which “binding of [^32 P]PI(3,4,5)P3 by GST fusion protein” value [3] is on record?
Answer: extensive binding

Question: And the “concentration that maximally activates labeled nucleotide binding to ARF1” value (ARF1; [5])?
Answer: 2.5 µM

Question: What about the “ARF1 guanine nucleotide exchange” value (ARF1; [^35 S]GTPγS binding to immunoprecipitated ARF1) of the same molecule?
Answer: catalyze nucleotide exchange; also recorded: selectively catalyzes

Question: What about the “concentration that maximally activates labeled nucleotide binding to ARF5” value (ARF5 [4]; [5]) of the same molecule?
Answer: 2.5 µM

Question: What about the “ARF5 guanine nucleotide exchange” value (ARF5 [4]; [^35 S]GTPγS binding) of the same molecule?
Answer: significantly enhanced; also recorded: catalyze nucleotide exchange; also recorded: selectively catalyzes

Question: What about the “ARF6 guanine nucleotide exchange” value (ARF6) of the same molecule?
Answer: no effect and not
